{"source": "paper PMC11143371", "key": {"[1]": {"molecular_target": "stabilized RV1 preF (A44P + E170P + Q171P + S473V + A480V) (human respirovirus 1) (UniProt P12605)", "assay": "SEC"}, "[2]": {"molecular_target": "stabilized RV1 preF (A44P + E170P + Q171P + S473V + A480V) (human respirovirus 1) (UniProt P12605)", "assay": "SEC-MALS"}, "[3]": {"molecular_target": "RV3 F ectodomain without GCN4, five head-stabilizing substitutions (S41P, N167P, Q89M, Q222I, L168P) (human respirovirus 3 (HPIV3/Seattle/USA/10Q7/2010))", "assay": "SEC-MALS; analytical SEC-MALS of F variants in supernatant"}, "[4]": {"molecular_target": "RV3 F ectodomain without GCN4, Q89M + Q222I + L168P + S470V + S477V (human respirovirus 3 (HPIV3/Seattle/USA/10Q7/2010))", "assay": "SEC"}, "[5]": {"molecular_target": "RV3 F ectodomain without GCN4, five head-stabilizing substitutions plus S470V and S477V (human respirovirus 3 (HPIV3/Seattle/USA/10Q7/2010))", "assay": "SEC-MALS; analytical SEC-MALS of F variants in supernatant"}, "[6]": {"molecular_target": "RV3 F ectodomain without GCN4, Q89M + Q222I + L168P + S470V (human respirovirus 3 (HPIV3/Seattle/USA/10Q7/2010))", "assay": "SEC"}, "[7]": {"molecular_target": "RV3 F ectodomain without GCN4, Q89M + Q222I + L168P + S477V (human respirovirus 3 (HPIV3/Seattle/USA/10Q7/2010))", "assay": "SEC"}, "[8]": {"molecular_target": "stabilized RV1 preF with K339P (A44P + E170P + Q171P + K339P + S473V + A480V) (human respirovirus 1) (UniProt P12605)", "assay": "SEC"}}}
{"substance": "stabilized RV1 preF (A44P + E170P + Q171P + S473V + A480V) (from UniProt P12605 22-496) (domain or fragment)", "values": [{"measurement": "stoichiometry N", "setting": "[1]", "result": 3}, {"measurement": "stoichiometry N", "setting": "[2]", "result": 3}]}
{"substance": "RV3 F ectodomain without GCN4, five head-stabilizing substitutions (S41P, N167P, Q89M, Q222I, L168P) (domain or fragment)", "values": [{"measurement": "stoichiometry N", "setting": "[3]", "result": 3}]}
{"substance": "RV3 F ectodomain without GCN4, Q89M + Q222I + L168P + S470V + S477V (domain or fragment)", "values": [{"measurement": "stoichiometry N", "setting": "[4]", "result": 3}]}
{"substance": "RV3 F ectodomain without GCN4, five head-stabilizing substitutions plus S470V and S477V (domain or fragment)", "values": [{"measurement": "stoichiometry N", "setting": "[5]", "result": 3}]}
{"substance": "RV3 F ectodomain without GCN4, Q89M + Q222I + L168P + S470V (domain or fragment)", "values": [{"measurement": "stoichiometry N", "setting": "[6]", "result": 3}]}
{"substance": "RV3 F ectodomain without GCN4, Q89M + Q222I + L168P + S477V (domain or fragment)", "values": [{"measurement": "stoichiometry N", "setting": "[7]", "result": 3}]}
{"substance": "stabilized RV1 preF with K339P (A44P + E170P + Q171P + K339P + S473V + A480V) (from UniProt P12605 22-496) (domain or fragment)", "values": [{"measurement": "stoichiometry N", "setting": "[8]", "result": 3}]}
